Reference: patent US20020068273A1 (published 2002)
Where no end group is shown, it is not given here.

Key:
biotin-Vpr52-96 (HIV-1) = biotin-Vpr52-96 (HIV-1) (UniProt P69726); experiment: SPR, Langmuir isotherm, ANT104-116 on biotinylated Vpr52-96
[1] = target: T1, adenine nucleotide translocator (ANT), purified native protein (rat, UniProt Q05962 2-298); experiment: SPR, ANT over immobilized Vpr52-96
T1 construct: mature; Used detergent-solubilized (SPR), reconstituted in liposomes or planar bilayers, or inside mitochondria (pull-down); also called adenine nucleotide translocase; ADP/ATP carrier
T1 sequence: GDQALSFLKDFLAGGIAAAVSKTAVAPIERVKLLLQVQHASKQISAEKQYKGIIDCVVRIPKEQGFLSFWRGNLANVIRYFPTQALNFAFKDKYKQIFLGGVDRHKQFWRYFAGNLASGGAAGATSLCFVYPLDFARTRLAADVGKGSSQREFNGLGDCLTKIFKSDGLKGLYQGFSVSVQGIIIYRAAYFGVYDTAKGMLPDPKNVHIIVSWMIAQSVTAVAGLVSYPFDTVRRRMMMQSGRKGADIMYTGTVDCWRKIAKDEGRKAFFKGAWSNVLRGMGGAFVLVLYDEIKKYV

[2] = target: T1, adenine nucleotide translocator (ANT), …; experiment: not stated (summary of the inventors' findings)

ANT-2-derived peptide ANT104-116
Kd (biotin-Vpr52-96 (HIV-1)): 35000 nM

B1: biotin-Vpr52-96 (peptide)
peptide: DTWAGVEAIIRILQQLLFIHFRIGCRHSRIGVTRQRRARNGASRS
modifications: also: biotin, position not given here
notes: range 52-96; Synthetic biotinylated peptide, immobilized for SPR and used as bait in the avidin-agarose pull-down; also called biotinylated Vpr52-96; immobilized Vpr C-terminal moiety
Kd [1]: 9.7 nM

B2: Vpr protein of HIV-1 (14 Kd; 96 aa) (other)
chain: MEQAPEDQGPQREPHNEWTLELLEELKNEAVRHFPRIWLHGLGQHIYETYGDTWAGVEAIIRILQQLLFIHFRIGCRHSRIGVTRQRRARNGASRS
notes: also called HIV-1 Viral protein R
Kd [2]: 1 nM
